Laboratory results: paper PMC9396027, “Comparative transcriptome analysis of MDBK cells reveals that BoIFN-γ augmented host immune responses to bovine herpesvirus 1 infection” (Frontiers in Microbiology, 2022)

Biological target: the molecule itself
Assay: SEC; Superdex 200 size exclusion column, refolded BoIFN-γ; peak mass compared with the monomer mass (14.2 kDa)

B1: Bovine interferon gamma (BoIFN-γ) (ligand, UniProt P07353 24-166, looked up)
chain: QGQFFREIENLKEYFNASSPDVAKGGPLFSEILKNWKDESDKKIIQSQIVSFYFKLFENLKDNQVIQRSMDIIKQDMFQKFLNGSSEKLEDFKKLIQIPVDDLQIQRKAINELIKVMNDLSPKSNLRKRKRSQNLFRGRRASM
notes: Bovine interferon gamma; synthesised gene encoding 122 amino acids, according to GenBank EU276066, nucleotides 24-390; monomer 14.2 kDa; Cloned into pET-21a(+); 122 amino acids is shorter than the mature protein as I recall it, so the construct is probably truncated; also called Bovine IFN-γ; bovine interferon gamma dimer protein
stoichiometry N: 2
